Results as given in paper PMC8300624, “Prdx1 Interacts with ASK1 upon Exposure to H2O2 and Independently of a Scaffolding Protein” (Antioxidants, 2021).
Positions count from the first letter of the chain named.

Legend:
[1] = target: T1, recombinant Prdx1 C173A (resolving cysteine mutant) (human, UniProt Q06830 1-199, C173A); assay: BLI; Octet Red 96; His-tagged MBP-ASK1-TBD loaded on Ni2+-NTA sensors at 0.45 µM; Prdx as analyte at 1 µM or at different concentrations for kon and koff; 10 µM H2O2 (oxidizing condition); 25 mM Tris/HCl pH 7.4, 25 mM NaCl, 1% BSA, 0.05% Tween 20, 0.01 mM maltose; His-tagged MBP as reference; the paper takes the bond to be a mixed disulfide; settings: both partners purified
T1 construct: peroxiredoxin-1 (Prdx1) with C173A; purified by the same protocol as Prdx1 WT; source: E. coli BL21, purified (Phenyl Sepharose, SP Sepharose, Superdex 75)
T1 sequence (looked up): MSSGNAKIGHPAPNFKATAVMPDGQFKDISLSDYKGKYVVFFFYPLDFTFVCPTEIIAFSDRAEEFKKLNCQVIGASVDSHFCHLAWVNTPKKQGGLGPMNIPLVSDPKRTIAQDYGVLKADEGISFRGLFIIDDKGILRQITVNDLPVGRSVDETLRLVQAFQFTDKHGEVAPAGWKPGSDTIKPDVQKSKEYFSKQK

[2] = target: T2, recombinant wild-type peroxiredoxin-1 (Prdx1 WT) (human, UniProt Q06830 1-199); assay: as above; settings: both partners purified
T2 construct: peroxiredoxin-1 (Prdx1); In the BLI the protein was pre-reduced with DTT, desalted and then met the sensor in 10 µM H2O2 or 10 µM DTT; also called pET17-Prdx1; source: E. coli BL21, purified (Phenyl Sepharose, SP Sepharose, Superdex 75)
T2 sequence (looked up): T1 sequence (looked up) with A173C

B1: 6xHis-MBP-ASK1-TBD (thioredoxin-binding domain of ASK1 with N-terminal His tag and maltose binding protein) (domain or fragment)
chain: SRRTTVAYVINEASQGQLVVAESEALQSLREACETVGATLETLHFGKLDFGETTVLDRFYNADIAVVEMSDAFRQPSLFYHLGVRESFSMANNIILYCDTNSDSLQSLKEIICQKNTMCTGNYTFVPYMITPHNKVYCCDSSFMKGLTELMQPNFELLLGPICLPLVDRFIQLLKVAQASSSQYFRESILNDIRKARNLYTGKELAAELARIRQR
modifications: Limits are not given; 88-302 is the usual recombinant ASK1-TBD construct and spans the listed TBD cysteines 120-250. His6-MBP-TEV carrier omitted. Assayed with 10 uM H2O2 (oxidizing) or 10 uM DTT …
koff [1]: 0.00228 s⁻¹
kon [1]: 7200 M⁻¹ s⁻¹
koff [2]: 0.0002 s⁻¹
kon [2]: 32700 M⁻¹ s⁻¹
